# Biological target: σ70, native, untagged (pLN12) (UniProt P00579)
# Sequence (P00579 whole entry): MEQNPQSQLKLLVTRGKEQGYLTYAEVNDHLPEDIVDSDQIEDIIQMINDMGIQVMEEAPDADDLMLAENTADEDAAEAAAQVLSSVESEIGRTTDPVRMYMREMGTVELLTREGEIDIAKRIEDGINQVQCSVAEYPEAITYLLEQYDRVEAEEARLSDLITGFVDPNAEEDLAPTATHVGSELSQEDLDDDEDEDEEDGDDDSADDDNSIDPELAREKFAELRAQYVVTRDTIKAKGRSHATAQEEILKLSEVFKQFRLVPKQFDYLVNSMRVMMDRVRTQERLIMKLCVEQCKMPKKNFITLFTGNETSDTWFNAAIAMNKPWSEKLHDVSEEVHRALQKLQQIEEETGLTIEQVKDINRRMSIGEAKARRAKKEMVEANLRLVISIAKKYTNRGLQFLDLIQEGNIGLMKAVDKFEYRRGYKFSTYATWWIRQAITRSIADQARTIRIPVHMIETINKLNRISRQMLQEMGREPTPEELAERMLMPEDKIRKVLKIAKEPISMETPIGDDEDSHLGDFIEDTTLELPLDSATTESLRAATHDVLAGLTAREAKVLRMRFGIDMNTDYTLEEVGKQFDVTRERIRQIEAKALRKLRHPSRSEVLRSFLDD
substance,measurement,value
β′ 1-1407 wild type with C-terminal His6 (pTA577),Growth at 42° C. with plasmid β′ as sole source of β′ (strain RL602),+

# — patent US20030104423
